Results on twelve molecules are retold here after patent US20180016312A1 (Pieris, published 2018).

Sequences and labels used below:
B1: hNGAL lipocalin mutein SEQ ID NO: 9 (designed binder)
chain: QDSTSDLIPAPPLSKVPLQQNFQDNQFHGKWYVVGHAGNYILREDKDPGKMWATIYELKEDKSYDVTEVSFGPKKCNYRIWTFVPGSQPGEFTLGGIKSPPGGTSTLVRVVSTNYNQHAMVFFKHVLQNREFFEITLYGRTKELTSELKENFIRFSKSLGLPENHIVFPVPIDQCIDGSAWSHPQFEK
notes: Mutein of mature hNGAL; Biotinylated with NHS-PEG4-Biotin for the SPR assay
B2: hNGAL lipocalin mutein SEQ ID NO: 1 (designed binder)
chain: B1 chain with H36Q, D65N, E68G, R79T
notes: Mutein of mature hNGAL
B3: hNGAL lipocalin mutein SEQ ID NO: 2 (designed binder)
chain: QDSTSDLIPAPPLSKVPLQQNFQDNQFHGKWYVVGFAGNHRLREDKDPGKMHATIYELKEDKSYNVTDVTFAFKKCNYRIHTFVPGSQPGEFTLGNIKSWPGETSTLVRVVSTNYNQHAMVFFKTVMQNREWFWITLYGRTKELTSELKENFIRFSKSLGLPENHIVFPVPIDQCIDGSAWSHPQFEK
notes: Mutein of mature hNGAL
B4: hNGAL lipocalin mutein SEQ ID NO: 3 (designed binder)
chain: QDSTSDLIPAPPLSKVPLQQNFQDNQFHGKWYVVGVAGNWYLREDKDPIKMTATIYELKEDKSYNVTQVGFEQKKCKYSIHTFVPGSQPGEFTLGDIKSWPGDTSLLVRVVSTNYNQHAMVFFKGVMQNREVFAITLYGRTKELTSELKENFIRFSKSLGLPENHIVFPVPIDQCIDGSAWSHPQFEK
notes: Mutein of mature hNGAL
B5: hNGAL lipocalin mutein SEQ ID NO: 5 (designed binder)
chain: QDSTSDLIPAPPLSKVPLQQNFQDNQFHGKWYVVGQAGNYWLREDKDPIKMSATIYELKEDKSYNVTIVYFTRKKCSYRIYTFVPGSQPGEFTLGPIKSYPGDTSTLVRVVSTNYNQHAMVFFKHVYQNREWFEITLYGRTKELTSELKENFIRFSKSLGLPENHIVFPVPIDQCIDGSAWSHPQFEK
notes: Mutein of mature hNGAL
B6: hNGAL lipocalin mutein SEQ ID NO: 10 (designed binder)
chain: B1 chain with H36Q, G49Q, E68G, P73A, N77V
notes: Mutein of mature hNGAL
B7: hNGAL lipocalin mutein SEQ ID NO: 6 (designed binder)
chain: B1 chain with H36Q, G49E, E68G, P100S, G103Q
notes: Mutein of mature hNGAL
B8: hNGAL lipocalin mutein SEQ ID NO: 13 (designed binder)
chain: B4 chain with N65D, K74E, L106P, V126M, N129D
notes: Mutein of mature hNGAL
B9: hNGAL lipocalin mutein SEQ ID NO: 14 (designed binder)
chain: B4 chain with V36M, Y41D, N65D, G70A, D96Q, L106P
notes: Mutein of mature hNGAL
B10: hNGAL lipocalin mutein SEQ ID NO: 12 (designed binder)
chain: B4 chain with N65D, K74E, D96N, L106P, N116D, N129D
notes: Mutein of mature hNGAL
B11: benchmark antibody 1 (SEQ ID NOs: 17/18) (antibody, human IgG1, lambda, V domains shown)
VH: not shown
VL: QPGLTQPPSVSVAPGQTARITCGGNNIGSKSVHWYQQKPGQAPVLVVYDDSDRPSGIPERFSGSNSGNTATLTISRVEAGDEADYYCQVWDSSSDHYVFGTGTKVTVLG
B12: hNGAL lipocalin mutein SEQ ID NO: 4 (designed binder)
chain: QDSTSDLIPAPPLSKVPLQQNFQDNQFHGKWYVVGEAGNVELREDKDPVKMTATIYELKEDKSYNVTEVRFWLKKCKYNIHTFVPGSQPGEFTLGAIKSGPGMTSTLVRVVSTNYNQHAMVFFKTVMQNREWFWITLYGRTKELTSELKENFIRFSKSLGLPENHIVFPVPIDQCIDGSAWSHPQFEK
notes: Mutein of mature hNGAL

Changes are numbered by the printed parent chain.

One experiment deals with T1, human angiopoietin-2 (human, UniProt O15123 19-496, limits assumed).
T1 construct: Bought recombinant protein with a His tag (detected by anti-HIS-tag antibody); also called human Ang-2; hAng-2
T1 sequence (looked up): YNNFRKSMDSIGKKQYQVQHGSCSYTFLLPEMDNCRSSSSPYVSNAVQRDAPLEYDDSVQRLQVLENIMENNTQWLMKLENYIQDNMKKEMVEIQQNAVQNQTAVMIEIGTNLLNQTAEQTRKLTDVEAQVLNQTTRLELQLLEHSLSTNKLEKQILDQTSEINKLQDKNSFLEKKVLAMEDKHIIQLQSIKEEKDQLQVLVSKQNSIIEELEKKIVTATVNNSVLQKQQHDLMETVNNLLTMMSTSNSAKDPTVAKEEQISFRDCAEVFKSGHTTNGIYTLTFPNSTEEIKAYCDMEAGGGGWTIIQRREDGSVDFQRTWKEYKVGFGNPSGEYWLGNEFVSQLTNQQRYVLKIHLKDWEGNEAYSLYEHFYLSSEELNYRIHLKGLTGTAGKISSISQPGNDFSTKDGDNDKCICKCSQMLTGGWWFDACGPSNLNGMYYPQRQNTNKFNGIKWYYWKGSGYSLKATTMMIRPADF
Briefly: ELISA; Ang-2 coated, mutein detected by anti-Streptag-HRP. As for the experimental part: Binding of muteins was tested by a sandwich ELISA assay.
20 μl of serially diluted muteins were incubated in PBS-T/BSA for 1h at room temperature (RT).
The residual supernatants were discarded and 20 μl HRP-labeled anti-Streptag antibody was added at a predetermined optimal concentration in PBS-T/BSA and incubated for 1 h at RT. After washing, 20 μl fluorogenic HRP substrate (QuantaBlu, Thermo) was added to each well, and the reaction was allowed to proceed for 15 to 60 minutes. The fluorescence intensity of every well on the plate was read using a fluorescence microplate reader (Tecan or Molecular Devices). Curve fitting was performed using GraphPad Prism 4 software.
The term EC50 denotes the concentration needed to bring the measured effect to its halfway point. B1 gave an EC50 of 2.1 nM.
On the same count and under the same terms, the result for B2 reads 3.7 nM; that for B3, 3 nM.
On the same count and under the same terms, the result for B4 reads 2.8 nM; that for B5, 3.5 nM.

A further experiment concerns the target T1, human angiopoietin-2. The experiment is described as follows: competition cell ECL; hAng-2 pre-incubated with binder, free Ang-2 captured on HEK:hTie-2 cells (competitor). On the procedure: (§1) All incubation steps were performed at room temperature, and the plate was washed after each incubation step with 80 μl PBS buffer for two times using a Biotek EL405 select CW washer (Biotek). In the first step, a 384 well plate was precoated for 5 minutes with poly D lysine and washed twice with PBS. 10⁴ HEK:hTie-2 cells per well were seeded and allowed to adhere to the surface of the wells overnight at 37° C. . After washing, cell coated wells were blocked with 60 μl PBS/Casein (2% Casein in PBS) for 1 h at room temperature.
(§2) After washing, 35 μl surfactant-free reading buffer was added to each well and the ECL signal of every well was read using a Mesoscale Discovery reader.
The IC50 is the point on the concentration scale where inhibition reaches its midpoint. Low readings indicate greater potency, high ones weaker potency. B1 gave an IC50 of 3.82 nM.
Still for that read-out and setting: the value for B6 was 4.63 nM; that for B7 was 3.46 nM.
In turn, B2 yielded an IC50 of 18.9 nM.
Molecule B8 had an IC50 of 5.43 nM.
B9 had an IC50 of 6.41 nM.
Same read-out and setting: the result for B4 reads 10.7 nM; that for B10, 5.29 nM.

In the next experiment the target is T1, human angiopoietin-2. The experiment is described as follows: competition ELISA; 0.5 nM hAng-2 pre-incubated with binder, free hAng-2 captured on hTie-2 Fc (competitor). As for the experimental part:
All incubation steps were performed with shaking at 300 rpm, and the plate was washed after each incubation step with 80 μl PBS-T buffer (PBS, 0.05% Tween 20) for five times using a Biotek EL405 select CW washer (Biotek). In the first step, a 384 well plate was directly coated with 20 μl of soluble human hTie-2 Fc (Reliatech) at a concentration of […] in PBS over night at 4 ° C. After washing, h Tie-2 Fc coated wells were blocked with 60 μl PBS-T/BSA (2% BSA in PBS containing 0.1% Tween 20) for 1 h at room temperature.
Curve fitting was performed using GraphPad Prism 4 software.
B1 returned an IC50 of 0.0929 nM.
Still for that read-out and setting: the value for B6 was 0.0794 nM.
B7 returned an IC50 of 0.0627 nM.
B2 yielded an IC50 of 0.558 nM.
On the same count and under the same terms, the value for B3 was 1.71 nM; that for B11 was 0.0158 nM.
In the case of B8, the concentration for half-maximal inhibition (IC50) was found to be 0.184 nM. This IC50 is about 12-fold higher than that of the molecule before.
Same read-out and setting: the value for B9 was 0.105 nM; that for B4 was 0.319 nM.
Still for that read-out and setting: the value for B10 was 0.131 nM; that for B5 was 0.861 nM; that for B12 was 0.412 nM.

In a further experiment the target is T2, mouse angiopoietin-2 (mouse, UniProt O35608 19-496, limits assumed).
T2 construct: Bought recombinant protein; also called mouse Ang-2; mAng-2
T2 sequence (looked up): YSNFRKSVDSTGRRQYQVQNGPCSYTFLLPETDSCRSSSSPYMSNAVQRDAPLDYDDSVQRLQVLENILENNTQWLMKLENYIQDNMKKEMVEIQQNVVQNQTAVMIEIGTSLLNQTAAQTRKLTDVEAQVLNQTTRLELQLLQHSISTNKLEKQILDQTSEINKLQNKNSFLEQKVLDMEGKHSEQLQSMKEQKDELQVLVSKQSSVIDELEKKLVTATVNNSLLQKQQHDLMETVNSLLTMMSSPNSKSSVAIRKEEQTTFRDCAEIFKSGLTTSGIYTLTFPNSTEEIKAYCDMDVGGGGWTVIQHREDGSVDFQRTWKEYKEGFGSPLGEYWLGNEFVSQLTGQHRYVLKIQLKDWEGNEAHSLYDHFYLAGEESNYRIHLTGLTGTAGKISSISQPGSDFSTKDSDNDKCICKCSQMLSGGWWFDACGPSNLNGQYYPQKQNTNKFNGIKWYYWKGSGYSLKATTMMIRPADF
The experiment is described as follows: competition cell ECL; mAng-2 pre-incubated with binder, free Ang-2 captured on HEK:hTie-2 cells (competitor). As for the experimental part: as §1, §2
Turning to B1, the IC50 turned out to be 1.39 nM.
Same read-out and setting: the result for B6 reads 1.05 nM; that for B7, 1.21 nM.
The same measure, in the same setting: the value for B2 was 3.98 nM; that for B8 was 7.34 nM.
Same read-out and setting: the result for B9 reads 2.32 nM.
B4 displayed an IC50 of 23.2 nM.
Still for that read-out and setting: the value for B10 was 3.12 nM.

In the next experiment the target is T1, human angiopoietin-2. Briefly: cell-based or functional assay.
In the case of B1, the “IC50 mean, LEC proliferation assay (CellTiter-Glo)” value (shortened to “IC50 mean, LEC proliferation assay”) turned out to be 0.142 nM.
Regarding B2, the “IC50 mean, LEC proliferation assay” value amounted to 2.25 nM.
Take B11: the “IC50 mean, LEC proliferation assay” value came out at 0.0668 nM.
The same measure, in the same setting: the value for B4 was 2.81 nM.

The next experiment has as its target T1, human angiopoietin-2. The experiment is described as follows: SPR Biacore T200; biotinylated mutein captured, hAng-2 analyte, 1:1 model, 25 C. On the procedure:
In the SPR affinity assay, biotinylated muteins and negative control were captured on a sensor chip CAP using the Biotin CAPture Kit (GE Healthcare): Sensor Chip CAP is pre-immobilized with an ssDNA oligo. Undiluted Biotin CAPture Reagent (streptavidin conjugated with the complementary ss-DNA oligo) was applied at a flow rate of 2 μl/min for 300 s. Subsequently, 0.02 μg/mL of biotinylated muteins or negative control were applied for 300 s at a flow rate of 5 μl/min. […] The reference channel was loaded with Biotin CAPture Reagent only.
Applying a flow rate of 30 μL/min, a multi cycle kinetics approach was used with a sample contact time of 180 s and a dissociation time of 4600 s. All measurements were performed at 25° C. […] Data were evaluated with Biacore T200 Evaluation software (V 1.0). Double referencing was used. A 1:1 Binding model was used to fit the raw data even though the analyte was known to be a multimer.
As usually defined, the Kd is the constant that tells how readily two partners part at equilibrium. Usually koff stands for the rate constant with which the complex falls apart. Higher therefore signals a short-lived complex. The molecule B1 gave a Kd of 0.29 nM and a koff of 9.4e-05 s⁻¹.
